The values that follow come from paper PMC2810376 (The EMBO Journal, 2010).

Test [1] addresses Rpb2, second largest subunit of RNA polymerase II (S. cerevisiae, UniProt P08518 1-1224). Briefly: cross-linking.
Test [2] concerns the target Rpb1, subunit of RNA polymerase II (S. cerevisiae, UniProt P04050 1-1733). Briefly: cross-linking.

Chain of Rpb2, second largest subunit of RNA polymerase II (P08518 whole entry): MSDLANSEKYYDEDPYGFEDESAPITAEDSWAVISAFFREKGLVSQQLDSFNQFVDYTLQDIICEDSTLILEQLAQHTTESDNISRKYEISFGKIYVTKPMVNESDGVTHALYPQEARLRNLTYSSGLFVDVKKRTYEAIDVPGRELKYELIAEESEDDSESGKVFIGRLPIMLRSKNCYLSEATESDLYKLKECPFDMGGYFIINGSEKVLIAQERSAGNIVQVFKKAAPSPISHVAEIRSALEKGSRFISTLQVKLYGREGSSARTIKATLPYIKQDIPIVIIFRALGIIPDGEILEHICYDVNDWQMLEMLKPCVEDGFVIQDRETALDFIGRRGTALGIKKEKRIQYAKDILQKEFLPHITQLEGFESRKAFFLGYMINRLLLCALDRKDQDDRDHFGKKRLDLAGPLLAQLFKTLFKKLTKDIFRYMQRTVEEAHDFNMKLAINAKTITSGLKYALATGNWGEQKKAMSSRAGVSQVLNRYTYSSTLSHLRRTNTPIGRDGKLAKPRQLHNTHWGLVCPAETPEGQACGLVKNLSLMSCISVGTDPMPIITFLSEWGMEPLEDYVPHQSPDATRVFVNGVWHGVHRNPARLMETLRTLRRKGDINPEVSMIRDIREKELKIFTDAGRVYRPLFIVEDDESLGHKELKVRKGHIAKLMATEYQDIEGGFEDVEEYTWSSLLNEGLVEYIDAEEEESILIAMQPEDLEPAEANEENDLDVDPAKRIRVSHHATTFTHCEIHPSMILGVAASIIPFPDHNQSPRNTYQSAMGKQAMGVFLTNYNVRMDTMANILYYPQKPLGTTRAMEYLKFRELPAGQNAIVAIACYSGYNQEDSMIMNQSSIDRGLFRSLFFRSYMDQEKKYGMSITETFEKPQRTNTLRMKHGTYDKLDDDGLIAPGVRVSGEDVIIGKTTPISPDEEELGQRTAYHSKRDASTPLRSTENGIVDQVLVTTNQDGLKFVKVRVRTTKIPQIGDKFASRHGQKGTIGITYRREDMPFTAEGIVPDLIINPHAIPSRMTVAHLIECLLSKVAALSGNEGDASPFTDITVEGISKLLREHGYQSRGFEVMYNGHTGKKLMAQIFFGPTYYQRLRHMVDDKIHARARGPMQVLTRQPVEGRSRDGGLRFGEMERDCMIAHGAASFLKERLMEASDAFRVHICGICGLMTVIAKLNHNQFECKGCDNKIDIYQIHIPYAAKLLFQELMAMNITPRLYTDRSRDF
Chain of Rpb1, subunit of RNA polymerase II (P04050 whole entry): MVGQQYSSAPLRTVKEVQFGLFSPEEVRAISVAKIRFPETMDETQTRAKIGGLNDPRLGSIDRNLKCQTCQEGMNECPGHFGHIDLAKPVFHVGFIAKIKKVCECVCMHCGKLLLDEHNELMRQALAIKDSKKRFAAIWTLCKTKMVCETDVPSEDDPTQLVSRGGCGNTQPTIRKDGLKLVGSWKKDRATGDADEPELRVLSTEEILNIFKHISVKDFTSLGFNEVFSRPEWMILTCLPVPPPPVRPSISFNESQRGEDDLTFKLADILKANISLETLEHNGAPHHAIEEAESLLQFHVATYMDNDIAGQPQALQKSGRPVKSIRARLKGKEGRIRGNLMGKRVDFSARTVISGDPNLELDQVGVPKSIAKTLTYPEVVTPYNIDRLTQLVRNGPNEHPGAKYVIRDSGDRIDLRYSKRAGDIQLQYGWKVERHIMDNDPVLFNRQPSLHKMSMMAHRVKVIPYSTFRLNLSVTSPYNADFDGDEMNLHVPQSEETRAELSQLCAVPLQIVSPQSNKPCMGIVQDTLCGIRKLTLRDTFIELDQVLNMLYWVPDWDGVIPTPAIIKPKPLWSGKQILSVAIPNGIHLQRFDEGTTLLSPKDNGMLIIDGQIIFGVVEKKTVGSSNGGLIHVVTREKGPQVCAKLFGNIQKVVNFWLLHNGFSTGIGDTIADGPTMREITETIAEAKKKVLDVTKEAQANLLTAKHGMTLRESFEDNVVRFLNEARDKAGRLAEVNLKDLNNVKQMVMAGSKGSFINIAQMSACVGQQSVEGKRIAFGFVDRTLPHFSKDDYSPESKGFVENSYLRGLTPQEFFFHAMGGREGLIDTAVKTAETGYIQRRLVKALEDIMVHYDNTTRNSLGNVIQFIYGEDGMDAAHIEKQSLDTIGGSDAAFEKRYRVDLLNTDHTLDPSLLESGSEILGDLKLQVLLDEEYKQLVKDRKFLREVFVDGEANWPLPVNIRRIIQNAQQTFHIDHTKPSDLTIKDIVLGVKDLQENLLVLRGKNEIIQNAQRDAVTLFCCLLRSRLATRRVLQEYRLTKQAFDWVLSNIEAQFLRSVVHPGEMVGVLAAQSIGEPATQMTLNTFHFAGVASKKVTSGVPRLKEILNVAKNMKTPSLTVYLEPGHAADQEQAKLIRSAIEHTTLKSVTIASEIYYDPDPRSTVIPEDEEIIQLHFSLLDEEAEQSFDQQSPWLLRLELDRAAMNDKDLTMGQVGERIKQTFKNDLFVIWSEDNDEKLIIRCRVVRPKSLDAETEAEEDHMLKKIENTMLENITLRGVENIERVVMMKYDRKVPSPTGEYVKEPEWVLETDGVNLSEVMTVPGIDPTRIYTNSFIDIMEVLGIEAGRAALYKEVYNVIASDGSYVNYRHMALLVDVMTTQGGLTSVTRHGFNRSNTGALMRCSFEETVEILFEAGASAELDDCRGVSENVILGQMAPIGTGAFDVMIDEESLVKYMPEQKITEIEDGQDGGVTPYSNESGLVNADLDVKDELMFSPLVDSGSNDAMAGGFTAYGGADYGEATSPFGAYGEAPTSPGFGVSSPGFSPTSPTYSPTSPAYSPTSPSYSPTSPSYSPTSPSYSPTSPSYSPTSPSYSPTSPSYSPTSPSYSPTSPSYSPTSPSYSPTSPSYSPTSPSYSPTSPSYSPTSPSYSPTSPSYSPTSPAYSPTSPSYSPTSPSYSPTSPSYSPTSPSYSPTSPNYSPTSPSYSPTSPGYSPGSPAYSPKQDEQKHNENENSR

B1: Tfg2, subunit of yeast TFIIF, with a C-terminal TAP tag (natural protein, S. cerevisiae, UniProt P41896 1-400, looked up)
chain: MSSGSAGAPALSNNSTNSVAKEKSGNISGDEYLSQEEEVFDGNDIENNETKVYEESLDLDLERSNRQVWLVRLPMFLAEKWRDRNNLHGQELGKIRINKDGSKITLLLNENDNDSIPHEYDLELTKKVVENEYVFTEQNLKKYQQRKKELEADPEKQRQAYLKKQEREEELKKKQQQQKRRNNRKKFNHRVMTDRDGRDRYIPYVKTIPKKTAIVGTVCHECQVMPSMNDPNYHKIVEQRRNIVKLNNKERITTLDETVGVTMSHTGMSMRSDNSNFLKVGREKAKSNIKSIRMPKKEILDYLFKLFDEYDYWSLKGLKERTRQPEAHLKECLDKVATLVKKGPYAFKYTLRPEYKKLKEEERKATLGELADEQTGSAGDNAQGDAEADLEDEIEMEDVV
Consider B1, for which the binding result in test [1] was “binds”.

B2: Tfg1, subunit of yeast TFIIF (natural protein, S. cerevisiae, UniProt P41895 1-735, looked up)
chain: MSRRNPPGSRNGGGPTNASPFIKRDRMRRNFLRMRMGQNGSNSSSPGVPNGDNSRGSLVKKDDPEYAEEREKMLLQIGVEADAGRSNVKVKDEDPNEYNEFPLRAIPKEDLENMRTHLLKFQSKKKINPVTDFHLPVRLHRKDTRNLQFQLTRAEIVQRQKEISEYKKKAEQERSTPNSGGMNKSGTVSLNNTVKDGSQTPTVDSVTKDNTANGVNSSIPTVTGSSVPPASPTTVSAVESNGLSNGSTSAANGLDGNASTANLANGRPLVTKLEDAGPAEDPTKVGMVKYDGKEVTNEPEFEEGTMDPLADVAPDGGGRAKRGNLRRKTRQLKVLDENAKKLRFEEFYPWVMEDFDGYNTWVGSYEAGNSDSYVLLSVEDDGSFTMIPADKVYKFTARNKYATLTIDEAEKRMDKKSGEVPRWLMKHLDNIGTTTTRYDRTRRKLKAVADQQAMDEDDRDDNSEVELDYDEEFADDEEAPIIDGNEQENKESEQRIKKEMLQANAMGLRDEEAPSENEEDELFGEKKIDEDGERIKKALQKTELAALYSSDENEINPYLSESDIENKENESPVKKEEDSDTLSKSKRSSPKKQQKKATNAHVHKEPTLRVKSIKNCVIILKGDKKILKSFPEGEWNPQTTKAVDSSNNASNTVPSPIKQEEGLNSTVAEREETPAPTITEKDIIEAIGDGKVNIKEFGKFIRRKYPGAENKKLMFAIVKKLCRKVGNDHMELKKE
As for B2, the binding result in test [2] and in test [1] was “binds” in each case.
